The values below come from patent US8124835B2, “Acyl-coa-dependent diacylglycerol acyltransferas 1 (DGAT1) gene from Tropaeolum majus, protein encoded thereby and uses thereof” (National Research Council of Canada, priority 2006, dated 2012).

The subject of the test is wild type (WT) Arabidopsis. Briefly: Over-expression of TmDGAT1 in wild-type Arabidopsis. Format: in vivo, Arabidopsis thaliana. The source says: FIG. 10. Over expression of the TmDGAT1 in Arabidopsis. Effect of transformation of Arabidopsis with the TmDGAT1 cDNA under the control of a napin promoter on (A) oil content and (B) average 1000-seed weight. Total oil content (as percentage of mature seed dry weight) and seed weight are shown for pSE (empty plasmid) in WT Arabidopsis (white bars), non-transformed WT Arabidopsis (black bars) and napin:TmDGAT1 transgenic homozygous T3 Arabidopsis lines (gray bars represent transgenic lines with a single insert and hatched bars represents transgenic lines with multiple inserts). (C) Fatty acid composition is shown for pSE (empty plasmid) in WT Arabidopsis and napin:TmDGAT1 transgenic homozygous T3 Arabidopsis lines. Homozygous T3 napin:TmDGAT1 lines were analyzed in triplicate, about 200 seeds per sample, accurately counted and weighed. For the plasmid only pSE in WT transgenic and non-transformed WT controls, ≧8 individual seed lots were similarly analyzed; the averaged values are presented.
FIG. 11. […]
Transgenic plants were selected and analyzed essentially as described previously (Jako et al., 2001; Mietkiewska et al., 2004). […]
Segregation analyses were performed to further confirm and select those transformants containing a single copy of the inserted fragment. […] Plants that contained the insertion (as shown by the presence of a PCR product from a napin/NOS junction using NN3 primer (5′-[…]-3′; SEQ ID NO: 22) and NN4 primer (5′-[…]-3′; SEQ ID NO: 23) and that carry a single locus insertion (as determined by a 3:1 segregation ratio of T2 seeds on kanamycin) were identified. Southern analyses were performed to further confirm and select those transformants containing single vs. multiple copies of the inserted fragment. DNA samples were digested with restriction enzymes KpnI (or BglII), resolved by electrophoresis on a 1% (w/v) agarose gel, and Southern blotting performed using a nylon filter (Hybond N+, Amersham) according to Sambrook et al. (1989). […]

B1: TmDGAT1: Tropaeolum majus acyl-CoA-dependent diacylglycerol acyltransferase 1, 518 amino acids (SEQ ID NO: 3), encoded by ORF SEQ ID NO: 2 (protein, listed as Tropaeolum majus)
chain: MAVAESSQNTTTMSGHGDSDLNNFRRRKPSSSVIEPSSSGFTSTNGVPATGHVAENRDQDRVGAMENATGSVNLIGNGGGVVIGNEEKQVGETDIRFTYRPSFPAHRRVRESPLSSDAIFKQSHAGLFNLCIVVLIAVNSRLIIENLMKYGWLIDTGFWFSSRSLGDWSIFMCCLTLPIFPLAAFIVEKLVQRNHISELVAVLLHVIVSTAAVLYPVIVILTCDSVYMSGVVLMLFGCIMWLKLVSYAHTSSDIRTLAKSGYKGDAHPNSTIVSCSYDVSLKSLAYFMVAPTLCYQPSYPRSSCIRKGWVVRQFVKLIVFIGLMGFIIEQYINPIVRNSKHPLKGDFLYAIERVLKLSVPNLYVWLCMFYSFFHLWLNILAELLRFGDREFYKDWWNAKTVAEYWKMWNMPVHRWMVRHLYFPCLRNGIPKEGAIIIAFLVSGAFHELCIAVPCHVFKLWAFIGIMFQVPLVLITNYLQEKFSNSMVGNMIFWFIFCILGQPMCVLLYYHDLINLKEK
B1: the “net increase in oil content” value (best line (TD/WT 13-6)) was determined as 44%. Further, where the note is “best line (TD/WT 13-6), mid-developing seed”, the “increase in DGAT activity” value is reported as “two-fold”. The “increase in total proportion of mono-unsaturated fatty acids (18:1+20:1) in seed TAGs” value (data not shown) is given as 2-3%.
